Consider two molecules from US20190161539A1 (published 2019).

Assay [1] concerns the target T1, aggregate tau fibrils purified from AD brain homogenates (human, UniProt P10636-8 2-441, limits assumed).
T1 construct: Brain-derived aggregates; also called Purified AD Tau Fibrils; purified tau fibrils
The assay can be described thus: ELISA on coated tau fibrils purified from AD brain. In general terms: An ELISA detects its analyte on a solid surface through an enzyme-linked reagent.

For a further assay, the target named is T2, human tau aggregates (human, UniProt P10636 2-758).
T2 construct: also called fibril tau; tau fibril aggregate
The assay can be described thus: SPR (BIACORE 2000), antibody captured on protein A, 1:1 fit. The procedure:
(§1) Except as noted, all reagents and materials are from BIACORE® AB (Upsala, Sweden). A CM5 chip containing immobilized protein A (generated using standard NHS-EDC amine coupling) on all four flow cells (FC) is used to employ a capture methodology. Antibody samples are prepared at 0.5 μg/mL by dilution into running buffer. Monomeric tau and fibril tau are prepared to concentrations of 2000, 1000, 500, 250, 125, 62.5, 31.25, 15.63, 7.82, 3.91, 1.95, and 0 (blank) nM by dilution into running buffer. Each analysis cycle consists of: (1) capturing antibody samples on separate flow cells (FC2, FC3, and FC4); (2) injection of 250 μL (300 sec) of either monomeric tau or tau fibril aggregate over respective FC at a rate of 50 μL/min; (3) return to buffer flow for 20 mins. to monitor dissociation phase; (4) regeneration of chip surfaces with 25 μL (30 sec) injection of glycine, pH1.5; (5) equilibration of chip surfaces with a 50 μL (60 sec) injection of HBS-EP+.
Data of binding to tau aggregate is processed using standard double-referencing and fit to a 1:1 binding model using Biacore 2000 Evaluation software, version 4.1, to determine the association rate (kₒₙ, M⁻¹s⁻¹ units), dissociation rate (koff, s⁻¹ units), and Rₘₐₓ (RU units). The equilibrium dissociation constant (KD) was calculated from the relationship KD=koff/kₒₙ, and is in molar units. […] Therefore, KD for binding to monomeric tau is obtained by using a steady state binding fit model from plotting the concentration of antigen versus the response unit.

Assay [2] deals with T3, human monomeric (native or non-aggregate) tau (human, UniProt P10636 2-758).
T3 construct: also called Monomeric Tau; monomeric tau
The assay can be described thus: SPR (BIACORE 2000), antibody captured on protein A, steady state fit. As to the method:
as §1
Data of binding to tau aggregate is processed using standard double-referencing and fit to a 1:1 binding model using Biacore 2000 Evaluation software, version 4.1, to determine the association rate (kₒₙ, M⁻¹s⁻¹ units), dissociation rate (koff, s⁻¹ units), and Rₘₐₓ (RU units). The equilibrium dissociation constant (KD) was calculated from the relationship KD=koff/kₒₙ, and is in molar units. […]

Another assay concerns the target Aβ1-42. In words: method only given as 'essentially as described above' (KD=Kd/Ka).
In assay [3] the target is T4, β-amyloid peptide (1-42) conjugated to BSA (C-terminal Cys43 coupled to maleimide-activated bovine serum albumin).
T4 construct: Coated on the ELISA plate; BSA carrier not written as a chain; also called Aβ1-42-BSA conjugate; Aβ1-42-Cys-BSA conjugate
The assay can be described thus: competition ELISA on coated Aβ1-42-BSA against biotinylated Mu266, first set of three experiments. As to the method:
(§2) The Aβ₁₋₄₂-BSA conjugate was prepared by dissolving 7.5 mg of Aβ₁₋₄₂-Cys₄₃ (C-terminal cysteine Aβ₁₋₄₂, AnaSpec) in 500 μL of dimethylsulfoxide, and then immediately adding 1,500 μL of distilled water. Two (2) milligrams of maleimide-activated bovine serum albumin (Pierce) was dissolved in 200 μL of distilled water. The two solutions were combined, thoroughly mixed, and allowed to stand at room temperature for two (2) hours. A gel chromatography column was used to separate unreacted peptide from Aβ₁₋₄₂-Cys-BSA conjugate.
(§3) After washing the wells with phosphate buffered saline (PBS) containing 0.1% Tween 20 (Washing Buffer) using an ELISA plate washer, the wells were blocked by adding 300 μL of SuperBlock reagent (Pierce) per well. After 30 minutes of blocking, the wells were washed Washing Buffer and excess liquid was removed.
(§4) As a background control, 100 μl of ELISA Buffer was added. The ELISA plate was incubated at room temperature for 90 min. After washing the wells with Washing Buffer, 100 μl of 1 μg/ml HRP-conjugated streptavidin (Cat #21124, Pierce) was added to each well. […] Absorbance was read at 415 nm. The absorbances were plotted against the log of the competitor concentration, curves were fit to the data points (using Prism) and the IC50 was determined for each antibody using methods well-known in the art.

The target in assay [4] is T4, β-amyloid peptide (1-42) conjugated to …. In words: competition ELISA on coated Aβ1-42-BSA against biotinylated Mu266, second set of three experiments. The procedure: as §2, §3, §4

T2 sequence (P10636 other isoform, or with tags, fused parts or gaps limits assumed): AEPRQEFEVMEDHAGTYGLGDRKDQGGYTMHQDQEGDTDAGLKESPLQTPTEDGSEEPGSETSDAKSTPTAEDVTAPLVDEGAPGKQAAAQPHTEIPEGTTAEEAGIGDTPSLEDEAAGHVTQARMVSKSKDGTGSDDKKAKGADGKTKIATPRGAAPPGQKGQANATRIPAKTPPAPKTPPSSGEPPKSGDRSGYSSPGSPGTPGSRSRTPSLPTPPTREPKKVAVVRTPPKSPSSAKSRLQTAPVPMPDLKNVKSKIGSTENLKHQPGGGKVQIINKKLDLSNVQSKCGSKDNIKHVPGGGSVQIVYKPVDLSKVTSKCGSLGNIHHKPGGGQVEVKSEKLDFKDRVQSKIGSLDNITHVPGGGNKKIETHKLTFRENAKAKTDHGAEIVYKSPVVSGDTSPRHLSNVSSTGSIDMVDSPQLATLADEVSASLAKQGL
T3 sequence (P10636 other isoform, or with tags, fused parts or gaps limits assumed): as above
T1 sequence (P10636 other isoform, or with tags, fused parts or gaps limits assumed): as above

B1: Exemplified anti-Tau antibody (having both HCs of SEQ ID NO.68 and both LCs of SEQ ID NO.67) (antibody, human IgG4 S228P, kappa, F234A L235A, V domains shown)
VH: EVQLVQSGAEVKKPGESLKISCKGSGYTFSNYWIEWVRQMPGKGLEWMGEILPGSDSIKYEKNFKGQVTISADKSISTAYLQWSSLKASDTAMYYCARRGNYVDDWGQGTLVTVSS
VL: EIVLTQSPGTLSLSPGERATLSCRSSQSLVHSNQNTYLHWYQQKPGQAPRLLIYKVDNRFSGIPDRFSGSGSGTDFTLTISRLEPEDFAVYYCSQSTLVPLTFGGGTKVEIKR
notes: also called Exemplified anti-Tau mAb; exemplified tau monoclonal antibody
Broadly, the EC50 is the concentration needed to bring the measured effect to its halfway point. Higher therefore signals a need for much substance. A word on the Kd: it is the constant that tells how readily two partners part at equilibrium. What is called koff is a measure of how fast the partners let go of each other. Low values mean a long-lived complex, high ones a short-lived complex. Broadly, the kon is the second-order rate constant of association. A lower kon goes with slow association. In assay [1], B1 gave an EC50 of 6.8 pM. In the assay with human tau aggregates, the Kd is below 220 pM, the koff is below 1e-05 s⁻¹ and the kon stood at 45900 M⁻¹ s⁻¹. In assay [2], the Kd came out at 235000 pM.

B2: humanized 266 antibody (Hu266) (antibody, human IgG1, kappa, V domains shown)
VH: EVQLVESGGGLVQPGGSLRLSCAASGFTFSRYSMSWVRQAPGKGLELVAQINSVGNSTYYPDTVKGRFTISRDNAKNTLYLQMNSLRAEDTAVYYCASGDYWGQGTLVTVSS
VL: DVVMTQSPLSLPVTLGQPASISCRSSQSLIYSDGNAYLHWFLQKPGQSPRLLIYKVSNRFSGVPDRFSGSGSGTDFTLKISRVEAEDVGVYYCSQSTHVPWTFGQGTKVEIKR
notes: Mature antibody expressed from pVk-Hu266 and pVg1-Hu266 in Sp2/0 cells; also called exemplified anti-Aβ antibody
As a reminder, the IC50 is the midpoint of a concentration-inhibition curve. Read a high IC50 as weaker potency. In turn, B2 displayed a Kd in the assay with Aβ1-42 of 4 pM. Further, the half-maximal inhibitory concentration (IC50) worked out at 7.5 µg/mL in assay [3] and 4 µg/mL in assay [4].
